Laboratory results: patent US20210380703A1
Residue numbers refer to the chain shown, from its start.

B1: 365_F07 (antibody, V domains shown)
VH: EVQLLESGGGLVQPGGSLRLSCAASGFTFSSYSMNWVRQAPGKGLEWVSNINYNGGYKSYADSVKGRFTISRDNSKNTLYLQMNSLRAEDTAVYYCARSATWHDTALDYWGQGTLVTVSS
VL: DIQMTQSPSSLSASVGDRVTITCRASQSILSYVNWYQQKPGKAPKLVIYAATSRASGVPSRFSGSGSGTDFTLTISSLQPEDFATYYCQQSYDLPLTFGGGTKVEIK
B2: 369_A05 (antibody, V domains shown)
VH: B1 VH with S49A, N50G, K58T, S59G, A106H
VL: B1 VL with S31T, D93E, L94S
B3: 370_A09 (antibody, V domains shown)
VH: B1 VH with S49A, N50G, K58T, S59G, A106H
VL: B1 VL with S31T, V33L, L94T
B4: 373_E04 (antibody, V domains shown)
VH: B1 VH with S30D, S49A, N50G, K58T, A106H
VL: B1 VL with S31T, V47L, D93N, L94S
B5: 376_B01 (antibody, V domains shown)
VH: B1 VH with S30D, S49A, N50G, K58T, A106H
VL: B1 VL with S31T, D93N
B6: 370_H03 (antibody, V domains shown)
VH: B1 VH with S30D, S49A, N50G, G55S, S59G, A106H
VL: B1 VL with S31T, V33L, V47L, R54L, L94T
B7: 367_A09 (antibody, V domains shown)
VH: B1 VH with S30D, S33G, S49A, N50G, K58T, A106H
VL: B1 VL with A55H, L94T
B8: 373_E03 (antibody, V domains shown)
VH: B1 VH with S30D, S33G, K58T, S59G
VL: B1 VL
B9: 365_D05 (antibody, V domains shown)
VH: B1 VH with S30D, S49A, N50G, K58T, A106H
VL: B1 VL with S31T, V47L, D93N, L94S
B10: 369_F07 (antibody, V domains shown)
VH: B1 VH with S30D, S49A, N50G, A106H
VL: B1 VL with D93E, L94S
B11: 373_H10 (antibody, V domains shown)
VH: B1 VH with S49A, N50G, K58T, S59G, A106H
VL: B1 VL with V47L, D93S
B12: 365_B03 (antibody, V domains shown)
VH: B1 VH with S49A, N50G, K58T, S59G, A106H
VL: B1 VL with L30V, V33L, V47L, D93E, L94N
B13: 369_E10 (antibody, V domains shown)
VH: B1 VH
VL: B1 VL
B14: 370_F08 (antibody, V domains shown)
VH: B1 VH with S30D, S49A, N50G, K58T, A106H
VL: B1 VL with L30I, V47L, A55H, D93N
B15: 372_F07 (antibody, V domains shown)
VH: B1 VH with S30D, S31D, S49A, N50G, G55S, S59G, A106H
VL: B1 VL with S31T, V33L, D93E
B16: 373_G05 (antibody, V domains shown)
VH: B1 VH with S49A, N50G, K58T, A106H
VL: B1 VL with V33L, V47L, R54L, D93E
B17: 369_G07 (antibody, V domains shown)
VH: B1 VH with S49A, N50G, K58T, A106H
VL: B1 VL with S31T, L94N
B18: 366_B04 (antibody, V domains shown)
VH: B1 VH with S30D, S49A, N50G, S59G, A106H
VL: B1 VL with S31T, A55H, L94T

Molecular target: human Fc (human)
Test: ELISA; negative control

optical density | Binder
0.331 OD | B1
0.588 OD | B2
0.361 OD | B3
0.251 OD | B4
0.308 OD | B5
0.381 OD | B6
0.259 OD | B7
0.194 OD | B8
0.357 OD | B9
0.335 OD | B10
0.2 OD | B11
0.444 OD | B12
0.412 OD | B13
0.495 OD | B14
0.296 OD | B15
0.273 OD | B16
0.32 OD | B17
0.331 OD | B18
